Laboratory results: patent US20220074937A1 (BIOSWAN LABORATORIES, published 2022)

Experiments:
[1] = molecular target: T1, CD19 CAR containing FMC63 scFv, on the cell surface (CD19 CAR-T cells, CD19 CAR-293T cells); test: flow cytometry on CD19 CAR-293T cells
T1 construct: Chimeric antigen receptor brought into T cells or 293T cells by lentivirus; also called FMC63 scFv CD19 CAR; CD19 CAR scFv on the cell surface; not shown: hinge, transmembrane and intracellular signalling regions of the CAR
Description: (§1) T cells were infected with CD19 CAR lentivirus or BCMA CAR lentivirus to obtain corresponding CAR-T cells. […] 2×10⁵ cells were suspended in 50 μL FACS buffer. 50 μL antibody solution was then added to 50 μL cell suspension and the mixture was incubated on ice for 30 minutes. The cells were then washed twice with cold FACS buffer. […] Table 1) and the mixture was incubated on ice for 30 minutes, after that the cells were washed twice with cold FACS buffer. The cells were resuspended in 200 μL FACS buffer and detected by flow cytometry.
(§2) CD19 CAR-293T cells were obtained by infecting 293T cells with CD19 CAR lentivirus. […] 2×10⁵ CD19 CAR-293T cells were suspended in 50 μL FACS buffer.

[2] = molecular target: T2, FMC63 scFv-His tag recombinant protein; test: ELISA, FMC63 scFv coated
T2 construct: Expressed in 293T cells, purified on Ni-NTA; also called FMC63 scFv recombinant protein; CD19 CAR scFv recombinant protein
T2 sequence (scFv, as listed by the source): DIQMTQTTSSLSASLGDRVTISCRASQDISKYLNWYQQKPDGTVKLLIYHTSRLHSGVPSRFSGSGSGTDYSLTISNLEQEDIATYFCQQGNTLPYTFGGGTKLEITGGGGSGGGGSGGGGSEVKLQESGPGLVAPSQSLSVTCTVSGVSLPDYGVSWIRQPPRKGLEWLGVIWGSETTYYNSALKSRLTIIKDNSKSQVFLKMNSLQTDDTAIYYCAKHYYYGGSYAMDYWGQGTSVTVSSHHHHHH
Description: (§3) Blocking was then performed with PBST (PBS containing 0.05% Tween 20) containing 5% BSA at 300 μL per well. […] The plate was washed with PBST and then incubated at room temperature for 30 minutes with goat anti-rabbit IgG polyclonal antibody coupled with horseradish peroxidase (HRP).

[3] = molecular target: T2, FMC63 scFv-His tag recombinant protein; test: BLI (Fortebio Octet), FMC63 scFv on the sensor, R19mab 15.6-0.975 nM, 1:1 model
Text: (§4) In short, the biosensor was balanced offline in PBS buffer for 600 seconds, and then detected online for 60 seconds to establish a baseline. […] Data Analysis 6.2 evaluation software was used to analyze the data, and a 1:1 combination model was used for kinetic analysis.

[4] = molecular target: T2, FMC63 scFv-His tag recombinant protein; test: BLI (Fortebio Octet), FMC63 scFv loaded on the sensor, R19mab at 15.6, 7.8, 3.9, 1.95 and 0.975 nM, 1:1 model; the same value stands in rows 1 to 5 of the drawn table (column Kd (M)); the text rounds it to 43 pM
Text: as §4

[5] = molecular target: T3, FMC63 antibody (murine anti-CD19 monoclonal antibody, Merck & Millipore MAB1794); test: ELISA, FMC63 antibody coated
T3 construct: Whole mouse monoclonal antibody coated on the ELISA plate; also called CD19 antibody
Description: as §3

[6] = molecular target: T1, CD19 CAR containing FMC63 scFv, on the …; test: flow cytometry (MFI) on CD19 CAR-293T cells, R19mab titrated; printed beside EC50 = 1.58 nM, which the text gives
Description: as §1, §2

T1 sequence (chain, as listed by the source): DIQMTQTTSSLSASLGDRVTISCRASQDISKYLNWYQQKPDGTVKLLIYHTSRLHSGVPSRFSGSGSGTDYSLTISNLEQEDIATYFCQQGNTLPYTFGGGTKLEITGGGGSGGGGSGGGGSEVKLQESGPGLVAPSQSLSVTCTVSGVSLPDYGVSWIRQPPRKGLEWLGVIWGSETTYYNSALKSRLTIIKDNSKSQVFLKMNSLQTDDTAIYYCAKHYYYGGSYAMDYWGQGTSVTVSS

EC50 [1]: 1.58 nM
EC50 [2]: 0.307 nM
Kd [3]: 0.043 nM
Kd [4]: 0.0431 nM
EC50 [5]: 0.253 nM
EC50 [6]: 0.237 mg/L
B1: rabbit monoclonal antibody R19mab against FMC63 scFv (antibody, V domains shown)
VH: QSLEESGGRLVTPGTPLTLTCTVSGIDFRNYGVSWVRQAPGKGLEWIGIFSSSGSTYYATWAKGRFTISKASSTTVDLKMTSLTTEDTATYFCARHPGPTNGWKLWGPGTLVTVSS
VL: DVVMTQTPASVEAPVGGTVTIKCQASQSVSGYCSWYQQKPGQPPKLLIYRASTLESGVPSRFSGSGSGTDFTLTISDLECADAATYYCQSNYNSGSSSSAAAFGGGTEVVVK
notes: Rabbit monoclonal IgG, expressed in 293T cells and purified on Protein A; also called No.0231 (rabbit B cell clone)
